Consider one substance from PMC11362559.

The target of this experiment is biotinylated I-A^b protein (SPR) (mouse). The experiment in a line: SPR. On the technique in general: Surface plasmon resonance follows binding to a sensor surface in real time, without labels.

One may read the Kd as the equilibrium constant for the complex coming apart.

As for “mLAG3^ΔL1 (Loop 1 deletion construct of mouse LAG3) (from UniProt Q61790) (receptor)”, the Kd amounted to 14.8 µM.
